According to the RNAGym collection of RNA variant scans (doi:10.1073/pnas.2313332121):

B1: TPR t1 (parent)
chain: GACCAAUCUGCCCUCAGAGCUCGAGAACAUCUUCGGAUGCAGAGGAGGCAGGCUUCGGUGGCGCGAUAGCGCCAACGUCCUCAACCUCCAAUGCAUCCCACCACAUGAUGAUGCCUGAAGAGCCUUGGUUUUUUG

Variants of: B1
Experiment: polymerase ribozyme fitness, log enrichment relative to wild type (log ratio); higher = more active; in vitro selection for triplet polymerase activity
How it was run: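 The heterodimeric triplet polymerase ribozyme's subunits were each mutagenized into PCR-built libraries and transcribed. Every library was selected once, in triplicate, by annealing with a biotinylated primer, the partner subunit and triplets, incubating frozen at −7 °C, gel-excising extended constructs, capturing on streptavidin beads and running RT-PCR. Input and output libraries were Illumina-sequenced, with genotypes kept only at ≥10 input reads and ≥1 read per output. Fitness, from inverse-variance-weighted replicate averages, is the base-2 logarithm of genotype enrichment over wild-type enrichment.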

Variant	polymerase ribozyme fitness (log ratio)
A18C C64U U130C	-2.08
A18G C53A C72U C85G	-4.61
G19A G60A G93U	-3.84
C20A A27U A95G U131A	-3.17
G19U A41G G63U	-4.85
A18G G19U C73A C79U	-1.75
C20A C72U	-2.98
A18U G57U C94G U112G	-5.68
A18C G44U	-3.35
C20A C89U U130A	-3.54
A18U C124A U126A	-1.36
A18U G61C U112A G122U	-6.15
G19A G61A U132C	-2.94
A18C G39A	-3.32
A18C C53G G60U U116G	-2.87
C20G C40A C70U U92A G93A G113C	-6.62
A18C C104A	-4.52
C20A G44U	-4.1
C20G A46U	-4.99
C20G C62A	-4.56
A18G G45U C102U U109C U116G	-5.64
A18U C73U U96A	-3.25
G19A G63A U92A	-4.56
A18G C56G C114A	-4.99

Variant	polymerase ribozyme fitness (log ratio)
G17U C72U U130A	-2.54
C20A A37U A83C	-3.38
A18U C40A C70A A121C	-5.25
G19A G71C C124A	-2.56
A18U C86G G113U	-4.47
A18C U92C C97U	-4.36
C20A G42U G60A	-3.62
G17U C88A	-2.77
A18G A24G C34U G61A A111U G128U G135U	-6.04
A18U G113C	-3.57
G19A G42U G71U G122A	-3.83
C20A C72A C101A	-5.69
G19U G47C C97U C114G	-2.97
G19A C56U	-2.34
G19A A43U C49U C124U	-2.19
A18U U133G	-1.41
A18C C40U A41G C56G C70U	-4.84
G19C G48U	-2.5
A18C G63C	-4
G17U U112C	-0.756
G19A A43U C101A U129G	-4.15
C20A G57C	-3.31
C20A G117A	-3.21
C20A G117U	-3.2

Variant	polymerase ribozyme fitness (log ratio)
C20A C34A A41C G69U C73U	-5.14
A18G C31G C88U C114G	-5.82
C20G C72A U87C G113A U130G	-1.05
G19U A50U	-3.48
C20A C53A U59A	-2.85
C20A C49G	-2.27
G19U C82A	-3.28
C20A A27C C62U	-4.63
A18U G44U C88G C89A	-2.55
C20A A41G C53A G71U U78G	-5.43
C20G C94U C114A G122U U125G	-6.15
G19U C86G	-3.71
C20A C62G G63U C114A G120A	-6.07
A18U G42U G63C A66G C123U	-4.29
C20A U32G G35C G93A G113A U125A	-6.57
G19U U96A C114A	0.905
G19C C49G U92A U125G	-4.13
A18C C53A C62U C72U C85G G122U	-4.78
C20A U125A	-3.22
G19A G44U G48C C49A C53A G69U C88G C104A G135C	-2.97
G19U U96G C114A	1.12
A18U C40U	-3.83
G19U U55C	-4.3
A18G G42C C99A	-5.32

Variant	polymerase ribozyme fitness (log ratio)
A18G U92C C104U G117U C123A	-2.56
A18G A46G C72U	-4.38
C20A G93A	-3.32
A18C C20A U54A U96A	-3.05
G17U G23U A74U C123G	-5.53
C20A C28G C94U A111G	-7.69
G17U C124A	-1.01
A18G G57U U59C C62A C94U G117U	-5.27
A18C A29G G107U C124G U125C	-7.59
G19A U78G A84U C115U A121C	-5.73
A18G G93A	-3.21
A18C U87G C89U	-2.03
A18G U59A A111U	-6.09
A18G C124A	-0.403
G19U C64U	-2.87
G17U C70U U87A	-4.04
A18U U59A A68G A91U G120U	-6.77
C20G C56U C72U	-3.6
G19A C85U	-3.47
G17U C73G C124G G128C	-2.67
G19U G45C A91C A111C	-3.35
G19U A43U G47U U112A G120A	-2.08
A18C C20U C53U	-1.72
G19C G42U U92A	-2.69

Variant	polymerase ribozyme fitness (log ratio)
G19U A37U	-3.17
G19U A24U A41C A43U U92G C101G G110U	-6.86
A18G G48A U116G	-3.25
G19C C72G	-3.09
C20A C72A A118U	-1.46
C20G C73A C101U G113U	-0.556
G19U C20U C72A U131A	-3.4
A18G A24G U55A	-5.14
A18U C79A	-4.95
A18U A26G C40G A43U G69A C97A U112A	-7.04
G19U G39U G93A U106C G120U	-5.8
G19A G48U C49U G69U G93U	-4.49
G19A G60C A75U A90C C98U C114A	-3.78
G19U U21A G47C A90C G113C	-4.49
G19C U87A	-2.58
G17U G39U C88U A91C G117U	-3.62
A18C C72G C124A U129A	-3.56
A18C C20U G110C	-6.35
A18G G44A C72G	-5.19
C20A C49A G63U	-4.62
A18C G61A	-2.53
G19C G45A G60A U106A	-4.35
A18U C70A G113A G122A	-4.58
G19U C72U A84C	-2.82

Variant	polymerase ribozyme fitness (log ratio)
A18U G52A C72A C73A U112A	-3.87
C20G C56U C123A	-5.13
C20G A91G C101A G117C	-4.92
A18U A27G C53A G71C C85G	-8.07
A18U C114A	-2.02
A18U C114G	-4.17
C20A C22A C62G U81G U96G A121U	-5.74
G19U A74G	-3.02
G19U C31U C56G C124U	-6.42
G19A G71C G127C	-4.23
C20G C72U	-4.16
G19A C73U C86U U96A G110A	-5.32
A18U G60U U130C	-1.84
G19A C70G C85U C114G	-7.51
C20A A27U A43U	-5.37
A18U U21C G36A C72U C114U	-4.3
A18C G120A	-1.48
C20G A37G A118U	-3.12
A18C G35A U59C U112A	-6.14
C20G C82A	-4.78
G19A G93U	-4.24
A18U G45U U87C A90G	-2.54
A18C C34A C99A C123A U126A	-5.25
C20A C31G G39U A46U G47A A100C A108U U125A	-6.51

Variant	polymerase ribozyme fitness (log ratio)
G17U C114U U125A	-5.53
C20A A46C C62U C86U	-3.97
G19A C49G G60U C85U A111C	-2.03
G17U C72U	-3.14
C20A G45A	-2.28
C20G C53G	-4.62
C20G C53U	-3.06
C20G C53A	-4.27
A18U C40U A46C C82A C86A C124G	-4.93
A18C C20U C88G G110C	-4.72
A18U U54G C114U	-4.87
A18U A27U C98A G110A	-7.19
A18U G71C C104A	-6.56
A18C U55C C62U	-3.73
A18G C49A C64U C79U G120C G128U	-3.3
A18U A37C C101A	-4.02
G19U U21G C49A G71A C114A	0.71
A18C C22U C73A A121U	-5.5
G19U G61C	-4.85
A18G U87G U109A	-2.3
C20A A37G C49A G63A	-4.85
G19A A43U C53U C56A	-3.04
G17U U21A U112C C123A	-3.07
